Measurements: patent publication US20170275368A1 (Hoffmann-La Roche, published 2017)
Like-named read-outs stand apart in the source and are kept apart here.

How the values were obtained:
[1] = target: CSF-1R (R&D-Systems Cat. No. 329-MR) (human) (UniProt P07333); assay: SPR cross-competition at 25 C; response of Antibody 2 on CSF-1R held by captured Antibody 1; competitor SC-02, clone 2-4A5 (Antibody 1, same antibody)
[2] = target: huCSF-1R-huFc chimera (soluble extracellular domain) (human) (UniProt P07333); assay: competition ELISA: inhibition of CSF-1 binding to immobilised huCSF-1R-huFc chimera
[3] = target: CSF-1R ECD (R&D-Systems 329-MR or in-house subcloned pCMV-presS-HisAvitag-hCSF-1R-ECD) (human) (UniProt P07333); assay: SPR (BIACORE A100) at 35 C; antibody captured, CSF-1R ECD in solution; Langmuir 1:1
[4] = target: CSF-1R (R&D-Systems Cat. No. 329-MR) (human) (UniProt P07333); assay: SPR cross-competition at 25 C; response of Antibody 2 on CSF-1R held by captured Antibody 1; competitor <CSF-1R>7G5.3B6 (Antibody 1)
[5] = target: mutant CSF-1R L301S Y969F (human) (UniProt P07333); assay: cell-based or functional assay
[6] = target: T1, full-length wildtype CSF-1R (wt CSF-1R) (human, UniProt P07333 20-972); assay: cell-based or functional assay
[7] = target: T1, full-length wildtype CSF-1R (wt CSF-1R); assay: cell-based or functional assay; remark: listed apart in the source
[8] = target: T2, huCSF-1R-huFc chimera (soluble extracellular domain) (human, UniProt P07333 20-517); assay: competition ELISA: inhibition of CSF-1 binding to immobilised huCSF-1R-huFc chimera
T2 construct: also called huCSF-1R ECDhuFc chimera; not shown: human Fc part
Description: At the beginning, plates were coated with […] goat F(ab′)₂ biotinylated anti Fcγ (Jackson ImmunoResearch., Cat. No. 109-006-170) for 1 hour (h).
Thereafter the wells were blocked with PBS supplemented with 0.2% TWEEN®-20 and 2% BSA (Roche Diagnostics GmbH, DE) for 0.5 h. 75 ng/ml of huCSF-1R-huFc chimera (soluble extracellular domain) was immobilized to plate for 1 h. Then dilutions of purified antibodies in PBS/0.05% Tween20/0.5% BSA were incubated for 1 h. After adding a mixture of 3 ng/ml CSF-1 (Biomol, DE, Cat. No. 60530), 50 ng/ml biotinylated anti CSF-1 clone BAF216 (R&D Systems, UK) and 1:5000 diluted streptavidin HRP (Roche Diagnostics GmbH, DE, Cat. No. 11089153001) for 1 h the plates were washed 6 times with PBST. Anti CSF-IR SC-02, clone 2-4A5 (Santa Cruz Biotechnology, ITS), which inhibits the ligand-receptor interaction, was used as positive control. Plates were developed with freshly prepared BM BLUE® POD substrate solution (BM BLUE®: 3,3′-5,5′-Tetramethylbenzidine, Roche Diagnostics GmbH, DE, Cat. No. 11484281001) for 30 minutes at RT. Absorbance was measured at 370 nm. […] Anti CSF-1R SC-02, clone 2-4A5 (Santa Cruz Biotechnology, US), which inhibits the ligand-receptor interaction, was used as reference control.

[9] = target: CSF-1R ECD (R&D-Systems 329-MR or in-house subcloned pCMV-presS-HisAvitag-hCSF-1R-ECD) (human, UniProt P07333 20-517); assay: SPR (BIACORE A100) at 35 C; antibody captured by anti mouse Fc gamma, CSF-1R ECD in solution; Langmuir 1:1
Description: CSF-1R ECD (R&D-Systems 329-MR or in-house subcloned pCMV-presS-HisAvitag-hCSF-1R-ECD were added in various concentrations in solution. Association was measured by an CSF-1R-injection of 1.5 minutes at 35° C.; dissociation was measured by washing the chip surface with buffer for 10 minutes at 35° C. Anti CSF-IR SC-02, clone 2-4A5 (Santa Cruz Biotechnology, US; see also Sherr, C. J., et al., Cell 41 (1985) 665-676), which inhibits the ligand-receptor interaction, was used as reference control.

[10] = target: T1, full-length wildtype CSF-1R (wt CSF-1R); assay: cell-based or functional assay; remark: listed apart in the source

Sequence of CSF-1R ECD (R&D-Systems 329-MR or in-house subcloned pCMV-presS-HisAvitag-hCSF-1R-ECD) (P07333 20-517 limits assumed): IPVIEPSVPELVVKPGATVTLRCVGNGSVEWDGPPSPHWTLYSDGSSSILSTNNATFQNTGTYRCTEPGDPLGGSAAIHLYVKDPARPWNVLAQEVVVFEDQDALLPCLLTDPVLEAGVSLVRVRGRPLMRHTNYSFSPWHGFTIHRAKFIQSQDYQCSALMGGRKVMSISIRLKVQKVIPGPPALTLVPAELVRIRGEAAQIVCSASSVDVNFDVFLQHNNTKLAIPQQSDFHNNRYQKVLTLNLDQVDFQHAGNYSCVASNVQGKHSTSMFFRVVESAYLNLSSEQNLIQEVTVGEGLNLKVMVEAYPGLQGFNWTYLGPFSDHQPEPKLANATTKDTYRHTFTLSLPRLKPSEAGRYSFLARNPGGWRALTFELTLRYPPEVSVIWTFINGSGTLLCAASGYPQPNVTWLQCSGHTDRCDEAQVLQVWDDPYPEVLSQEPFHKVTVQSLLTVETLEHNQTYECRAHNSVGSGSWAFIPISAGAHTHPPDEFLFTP
Sequence of CSF-1R ECD (R&D-Systems 329-MR or in-house subcloned pCMV-presS-HisAvitag-hCSF-1R-ECD) (human) (P07333 20-517 limits assumed): as above
T1 sequence (P07333 20-972 limits assumed): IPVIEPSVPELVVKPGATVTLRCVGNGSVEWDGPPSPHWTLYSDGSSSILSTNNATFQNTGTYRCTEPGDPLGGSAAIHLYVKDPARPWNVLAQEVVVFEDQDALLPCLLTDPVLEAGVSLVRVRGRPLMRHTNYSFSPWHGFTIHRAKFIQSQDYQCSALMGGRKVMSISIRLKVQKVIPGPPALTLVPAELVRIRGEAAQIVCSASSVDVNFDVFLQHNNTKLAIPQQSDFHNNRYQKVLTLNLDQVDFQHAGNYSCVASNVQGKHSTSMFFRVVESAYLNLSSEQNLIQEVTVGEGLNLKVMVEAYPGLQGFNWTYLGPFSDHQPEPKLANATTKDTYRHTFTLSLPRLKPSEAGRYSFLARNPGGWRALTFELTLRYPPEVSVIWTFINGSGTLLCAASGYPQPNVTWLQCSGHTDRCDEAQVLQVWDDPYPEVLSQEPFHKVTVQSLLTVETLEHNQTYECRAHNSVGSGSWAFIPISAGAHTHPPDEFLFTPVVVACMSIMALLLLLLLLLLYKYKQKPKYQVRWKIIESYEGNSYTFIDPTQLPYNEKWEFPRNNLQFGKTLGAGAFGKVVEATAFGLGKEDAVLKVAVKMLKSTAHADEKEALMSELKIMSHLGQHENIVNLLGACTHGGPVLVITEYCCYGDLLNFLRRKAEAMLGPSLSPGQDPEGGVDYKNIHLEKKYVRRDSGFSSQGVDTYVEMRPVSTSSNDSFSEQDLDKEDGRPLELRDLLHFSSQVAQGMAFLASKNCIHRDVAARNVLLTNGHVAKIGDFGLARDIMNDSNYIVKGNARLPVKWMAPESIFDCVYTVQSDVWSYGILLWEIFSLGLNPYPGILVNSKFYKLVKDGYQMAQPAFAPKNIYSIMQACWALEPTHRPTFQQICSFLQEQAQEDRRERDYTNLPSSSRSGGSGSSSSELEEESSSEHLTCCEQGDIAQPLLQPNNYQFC
Sequence of CSF-1R (R&D-Systems Cat. No. 329-MR) (human) (P07333 20-517 limits assumed): as the sequence (P07333 20-517 limits assumed) above
Sequence of mutant CSF-1R L301S Y969F (human) (P07333 20-972 L301S/Y969F limits assumed): as the sequence (P07333 20-972 limits assumed) above, with L282S, Y950F counted along it
Sequence of huCSF-1R-huFc chimera (soluble extracellular domain) (human) (P07333 20-517, change not shown): as the sequence (P07333 20-517 limits assumed) above
T2 sequence (P07333 20-517, change not shown): as the sequence (P07333 20-517 limits assumed) above

| Molecule | percentage (%) of expected binding response [1] | IC50 [2] | Kd [3] | koff [3] | kon [3] | t1/2 [3] | percentage (%) of expected binding response [4] | % survival of NIH3T3 cells expressing mutant CSF-1R L301S Y969F, 10 ug/ml antibody (…-GLO) [5] | % inhibition of CSF-1 induced growth of BeWo tumor cells, 10 ug/ml antibody concentration [6] | % survival of NIH3T3 cells expressing wt CSF-1R, 10 ug/ml antibody (…-GLO) [6] | IC50 CSF-1R Phosphorylation [6] | IC50 [nM] of inhibition of monocyte survival (…-GLO) [6] | IC50 [nM] of inhibition of monocyte survival (…-GLO) [7] | IC50 [8] | Kd [9] | koff [9] | kon [9] | t1/2 [9] | IC50 CSF-1R Phosphorylation [10] |
| --- | --- | --- | --- | --- | --- | --- | --- | --- | --- | --- | --- | --- | --- | --- | --- | --- | --- | --- | --- |
| Anti CSF-1R SC-02, clone 2-4A5 (Santa Cruz Biotechnology) (antibody) | -2% | 0.0309 µg/mL | 2.73 nM | 0.00139 s⁻¹ | 509000 M⁻¹ s⁻¹ | 8.31 min | 36% | 66% | 40% | 62% | 0.412 µg/mL | 2.4 nM |  |  |  |  |  |  |  |
| <CSF-1R>7G5.3B6 (antibody, V domains shown, Mouse monoclonal antibody from hybridoma DSM ACC2921 (NMRI mice), tested as purified hybridoma antibody; also called deposited antibody DSM ACC2921) VH: EIQLQQSGPELVKPGASVRVSCKPSGYSFTDYNMYWVRQSHGKSLDWIGYIDPYNGGTTYNQKFRGKATLTVDKSSSTAFMHLNSLTSEDSAVYYCARGGDEYYFDYWGQGTTLTVSS VL: DIVMSQSPSSLAVSVGEKVTMSCKSSQSLLDSRNQKNYLAWYQQKPGQSPKLLIYWASTRESGVPDRFTGSGSGTDFTLTISSVKAEDLAVYYCQQYYSYPPTFGGGTKLEIKR |  |  |  |  |  |  |  |  |  |  |  |  | 0.4 nM | 0.0188 µg/mL | 0.61 nM | 0.0049 s⁻¹ | 8e+06 M⁻¹ s⁻¹ | 2.37 min | < 0.011 µg/mL |
